Measurements: the supplement of paper PMC9170038

system: K4 kissing-loop RNA reporter; assay: apparent KD of K4 kissing-loop reporter; higher = weaker reporter binding; settings: Eterna round: R107; input ligand: arginine 13.2 mM
Protocol: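 RNA-MaP round R107: designed RNA switches with theophylline, tryptophan, arginine or FMN aptamers are transcribed on-chip within common flanks. They are titrated with a labelled K4 kissing-loop RNA reporter in RNA-MaP buffer (100 mM Tris pH 7.5, 80 mM KCl, 4 mM MgCl2), without ligand or with the indicated ligand. Median apparent KD per design.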
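Note: bound reporter read as fluorescence of individual clusters on recovered sequencing chips by microscopy, with normalized cluster intensities fitted with a binding model.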

Going from “GACGGGCAGUGAUGUUGCCGGUCUCUUGGACGAGGACCGGUACGGCCGCCACUCGAUCUGAUGCAAGAAUCGCAUCUUUUAAUAA [Biququan]” to “AAAGACUGACUGCAAUUAGCAGUCAGUCAACGAGGACCGGUACGGCCGCCACUCGGGUCCUAGAGUGAUGUUCUAAUAAUAUAAU [Default title]”, the “apparent KD of K4 kissing-loop reporter” value rises from 0.103 µM to 0.367 µM (3.6-fold).

Going from “GCCUAGGCUCGAAAGAGCCUAGGCUGGGCUCAGGAUAUCCGGAAACGGAGAAGGGAGGGACUAGUGAUGUUAGGGAUUCCCUAUG” to “CCAUCGCUAUUCGAUACCAGUCAAGAGGUCUUUGGCCUCUUAAUGGAGUGAUGUUCCUUAGACCCUUGGCAGCGAAUAGUGAUGG [Theophylline B K4 13]”, the “apparent KD of K4 kissing-loop reporter” value falls from 0.264 µM to 0.127 µM (2.1-fold).

“AACGCUGCCUGAGGAUAUAGAAACGAGUGAUGUUCGUGGAACGAGACCAGUGAUGUUGGCCUAUUUCUAGAAGGCAGGCAACCGC [Exclusion FMN B GF 1]” and “AACGCUCAAUAGAGAGUGAUGUUCUCUAUACGAGGACCGGUACGGCCGCCACUCGAAUGUAUAGCGAAACGCUAUACACAGUGGU [Tryp A SS t2]” are within 1.5-fold of each other in “apparent KD of K4 kissing-loop reporter” value: 0.121 µM for the first, 0.147 µM for the second.

“AAAAUAAACCAGUGAUGUUGGUGUCUAGAUACCAGCGAUAAUAAUCGCCCUUGGCAGCUACGGACGUACAAAAUAAGUACGUCCU [MatMod 10 - Jieux - Same State - Theophylline A]” and “CGCAGUGAUGUUGCUAUUGUUCUUGGUUAACGAGGACCGGUACGGCCGCCACUCGAUGUCUGUCUAGUCCAGUGUUUUUUUGAGU [whbob_EX_Tryp_A_t9]” are within 1.5-fold of each other in “apparent KD of K4 kissing-loop reporter” value: 0.375 µM for the first, 0.493 µM for the second.

Going from “UGACAUUGCUCAGAUACCAGUCAUGAGGAUCACCCAUGGGCCAAACGUACAAUAAUAAAUGACCCUUGGCAGCUGAGCAAUGUCU [TheoBX 14]” to “CCUAUCUCGUAGGAUACCAGACUAUGAUCUAUGAUCAAUGCCAUCACCGAGUGAUGUUCGGUCCCUUGGCAGCCUAUGAGAUGGG [#13 K4 Theophylline B Exclusion]”, the “apparent KD of K4 kissing-loop reporter” value rises from 0.0369 µM to 0.147 µM (4-fold).

“UUAUUAUUCAGUGAUGUUGAAUUUAUUUCAGAGGAUAUGCAUAAAUGCAGAAGGCUGUAAUACUAUACUUUAAUAAAUUAAAUUU [JR_SSFMNA_Sub018]” and “GUUACGCAUGGAAGGAGCGCUCUCAUACUUAAUAACACAGUGAUGUUGUGAAUUUGUAUAAAGCAGGUAGGUCGCCAUGUGUAAC [Ex Arginine B K4 7]” are within 1.5-fold of each other in “apparent KD of K4 kissing-loop reporter” value: 0.25 µM for the first, 0.323 µM for the second.

“GGUAGCAUGGCGGCCGCCACUACCUAGUGAUGUUAGGCUGUGGACAUAGGAGCAAGACAAAUAUGUAGGACCGGGCCAUGCUACC” and “AUAUCUAGAGUGAUGUUCUAGUAAGCUGAAGGAGCGGACGAAAGUCCAGGUAGGUCGCAGUGUUUUUACACCUCAUGUGUAGGAG [KL-SSArg-A7 #analogue]” are within 1.5-fold of each other in “apparent KD of K4 kissing-loop reporter” value: 0.0928 µM for the first, 0.128 µM for the second.

“GCAGUGAUGUUGCACGAGUAGGCUGGAGUACGAGGACCGGUACGGCCGCCACUCGUACGAAAGUCGCUAAUUUAUGGAAUGGUGA [#07 K4 Tryptophan A Same State]” and “AGUGAUGUUGUGUUAUGUUAGUGAAGUGAUCGAGGACCGGUACGGCCGCCACUCGAGUGAUGAGUGAGUGAUGUUUGUUUAGGGA [popmullin]” are within 1.5-fold of each other in “apparent KD of K4 kissing-loop reporter” value: 0.623 µM for the first, 0.674 µM for the second.

Going from “UGGAGUUGACGAAAAGUCAACUCCCGAGAAGGAGCGGACGAAAGUCCAGGUAGGUCGCUCACUACCAGUGAUGUUGGUACUUAAA” to “CGCAGUGAUGUUGCGAGCAGCUACAGGGAAGGAGCGCUUUAGUAAGCAGGUAGGUCGCCCACGCAGUGAUGUUGCGUCAUAGGGU [Exclusion Arginine A GF 20]”, the “apparent KD of K4 kissing-loop reporter” value falls from 0.22 µM to 0.123 µM (1.8-fold).

Compared with “CUAUGGAAACAUAGUAAUCGGGAAACCGAUACCAGUAUGGAAACAUACCCUUGGCAGCGGAAUGAUUAAACGGAGUGAUGUUCCG [Theophylline A K4 17]”, “CCAUCGCUAUUCGAUACCAGUCAUUUUUUAUUUUUUUUUUUUUUUGGAGUGAUGUUCCAAGACCCUUGGCAGCGAAUAGUGAUGG [whbob_SS_Theo_B_th77]” is 2.2-fold lower in “apparent KD of K4 kissing-loop reporter” value: 0.243 µM for the first, 0.109 µM for the second.

“GUCGGGACUCGAGGAUAUCAGUGGAGGCCAGUGAUGUUGGCCGUCCCGGUAGUUAAAAUUUUACCCUGAGAAGGCGAUUUCUGUC [Veceinusqu]” and “AAUAAAAUCACGGCCGCCACUGAAUUAUUGGUAAGUAGUGAUGUUACUUUACAUAUCUAAUUUAACAGGACCGGGUGAAUAUUUA [#17 K4 Tryptophan B Exclusion]” are within 1.5-fold of each other in “apparent KD of K4 kissing-loop reporter” value: 0.128 µM for the first, 0.0934 µM for the second.

First: UAUGUACACUGGUAGUGGUACAUCGAGGAAGGAGCGUGCGCAGGCACAGGUAGGUCGCCUCAGCGCACGAGUGAUGUUCGUGGGC [Ceaqu]
Second: AAGGUCACUGCUACAGUGAUGUUGUGGGAGCAGGAUAUGCUGAAAAGCAGAAGGGCUCGCUCCAGGUGACCGAAUGAAACAUUCA [whbob_SS_FMNA__2th176]
The “apparent KD of K4 kissing-loop reporter” value of the first is 3.5-fold lower: 0.205 µM for the first, 0.718 µM for the second.

First: CUUAGGAGUGGUGUUGAUUAGGGAGCGGAAGGAGCGCCAAUGAUGGCAGGUAGGUCGCCGGAAUGUAGUGAUGUUGCAUAGAGGG [ExArgA.S]
Second: GCCGUACGCAUGGAUACCAGCAUUUAUGACACACUGCUAGUGAUGUUAGCUAUGCGUAUAUGCCCUUGGCAGCCAUGCGUACGGC
The “apparent KD of K4 kissing-loop reporter” value of the first is 1.8-fold higher: 0.225 µM for the first, 0.128 µM for the second.

In the case of “AAGCAGUCCCUUGUUGUCAUCGAAGAUGAACGAGGACCGGUACGGCCGCCACUCGGAGUGAUGUUCCGAUGGCUGCAAAAUAAAA [MatMod 21 - Jieux - Exclusion - Tryptophan A]”, the “apparent KD of K4 kissing-loop reporter” value was 0.0967 µM.
